Measurements reported in patent US20230212304A1 (BIOSION, published 2023).

T1: recombinant human CTLA4-his protein (Acro biosystems, Cat#CT4-H5229) (human, UniProt P16410 37-162)
T1 construct: bought recombinant protein; not shown: his tag
T1 sequence (looked up): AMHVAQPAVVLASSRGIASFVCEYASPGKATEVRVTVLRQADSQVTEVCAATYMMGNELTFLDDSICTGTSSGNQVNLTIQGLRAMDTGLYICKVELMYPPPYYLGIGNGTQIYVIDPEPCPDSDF


Molecular target: T1, recombinant human CTLA4-his protein …
Experiment: BLI, Octet; antibody from cell supernatant on AHC sensor, CTLA4-his as analyte
Method: Briefly, AHC biosensors (anti-human IgG Fc capture, from ForteBio) were presoaked with 10 mM glycine (pH 1.5) for 3 seconds, and then dipped in a well with running buffer (0.5% w/v BSA in PBST) for 3 seconds, the soaking and dipping steps were repeated for three times. […] A new baseline was run for 180 seconds in another well with running buffer. […] Finally, sensors were presoaked with 10 mM glycine (pH 1.5) for 3 seconds, and then were dipped in a well with running buffer for 3 seconds, the soaking and dipping steps repeated for three times. The association and dissociation curves were fit to a 1:1 Langmuir binding model using ForteBio Data Analysis 8.1.

| Kd [nM] | koff [s⁻¹] | kon [M⁻¹ s⁻¹] | Binder |
| --- | --- | --- | --- |
| 0.952 | 0.000229 | 240000 | huC1D1-V4 (antibody, human IgG4 S228P, kappa, V domains shown, humanized IgG4/kappa; tested as 293F cell supernatant on Octet; also called hu CTLA4 C1D1-V4) VH: EVQLVESGGGLVQPGRSLRLSCTASGFTFSDNWMNWVRQAPGKGLEWVGQIRNKPYNYETYYSDSVKGRFTISRDDSKSIAYLQMNSLKTEDTAVYYCTGGMDYWGQGTTVTVSS VL: DIQMTQSPSSLSASVGDRVTITCGASEIIYGALNWYQQKPGKSPKLLIYGATNLADGMPSRFSGSGSGRDYTLTISSLQPEDVATYYCQKILSPPPWTFGGGTKVEIKR |
| 0.184 | 4.61e-05 | 250000 | huC1D1-V1 (antibody, human IgG4 S228P, kappa, V domains shown, humanized IgG4/kappa; tested as 293F cell supernatant on Octet; also called huCTLA4 C1D1-V1) VH: EVQLVESGGGLVQPGRSLRLSCTASGFTFSDNWMNWVRQAPGKGLEWVAQIRNKPYNYETYYSDSVKGRFTISRDDSKSIVYLQMNSLKTEDTAVYYCTGGMDYWGQGTTVTVSS VL: DIQMTQSPSSLSASVGDRVTITCGASEIIYGALNWYQQKPGKSPKLLIYGATNLADGMPSRFSGSGSGRDYTLTISSLQPEDVATYYCQKILSPPPWTFGGGTKVEIKR |
| 10.2 | 0.000857 | 83900 | huD1D5-V7 (antibody, human IgG4 S228P, kappa, V domains shown, humanized IgG4/kappa; tested as 293F cell supernatant on Octet; also called hu CTLA4 D1D5-V7) VH: EVQLVESGGGLVKPGGSLRLSCAASGFTFSDYGMAWVRQAPGKGLEWVAFISNLAYSVYYADTETGRFTISRDDAKNSLYLQMNSLRAEDTAVYYCARSGLPYAMDYWGQGTTVTVSS VL: DIQMTQSPSSLSASVGDRVTITCRASQDISNYLNWYQQKPGKVPKLLIYYISRLHSGVPSRFSGSGSGTDFTLTISSLQPEDVATYFCQQGRMLPWTFGGGTKVEIKR |
| < 0.001 | < 1e-07 | 82000 | huD1D5-V1 (antibody, human IgG4 S228P, kappa, V domains shown, humanized IgG4/kappa; tested as 293F cell supernatant on Octet; also called huCTLA4 D1D5-V1) VH: EVQLVESGGGLVKPGGSLRLSCAASGFTFSDYGMAWVRQAPGKGPEWVAFISNLAYSVYYADTETGRFTISRDDAKNSLYLQMNSLRAEDTAVYYCARSGLPYAMDYWGQGTTVTVSS VL: DIQMTQSPSSLSASVGDRVTITCRASQDISNYLNWYQQKPGKTVKLLIYYISRLHSGVPSRFSGSGSGTDFTLTISSLQPEDVATYFCQQGRMLPWTFGGGTKVEIKR |
| 1.73 | 0.00018 | 104000 | huD1D5-V5 (antibody, human IgG4 S228P, kappa, V domains shown, humanized IgG4/kappa; tested as 293F cell supernatant on Octet; also called hu CTLA4 DID5-V5) VH: EVQLVESGGGLVKPGGSLRLSCAASGFTFSDYGMAWVRQAPGKGPEWVAFISNLAYSVYYADTETGRFTISRDDAKNSLYLQMNSLRAEDTAVYYCARSGLPYAMDYWGQGTTVTVSS VL: DIQMTQSPSSLSASVGDRVTITCRASQDISNYLNWYQQKPGKVPKLLIYYISRLHSGVPSRFSGSGSGTDFTLTISSLQPEDVATYFCQQGRMLPWTFGGGTKVEIKR |
| 0.72 | 6.25e-05 | 86800 | huD1D5-V2 (antibody, human IgG4 S228P, kappa, V domains shown, humanized IgG4/kappa; tested as 293F cell supernatant on Octet; also called hu CTLA4 D1D5-V2) VH: EVQLVESGGGLVKPGGSLRLSCAASGFTFSDYGMAWVRQAPGKGLEWVAFISNLAYSVYYADTETGRFTISRDNAKNSLYLQMNSLRAEDTAVYYCARSGLPYAMDYWGQGTTVTVSS VL: DIQMTQSPSSLSASVGDRVTITCRASQDISNYLNWYQQKPGKTVKLLIYYISRLHSGVPSRFSGSGSGTDFTLTISSLQPEDVATYFCQQGRMLPWTFGGGTKVEIKR |
| 4.36 | 0.000408 | 93500 | huD1D5-V4 (antibody, human IgG4 S228P, kappa, V domains shown, humanized IgG4/kappa; tested as 293F cell supernatant on Octet; also called hu CTLA4 D1D5-V4) VH: EVQLVESGGGLVKPGGSLRLSCAASGFTFSDYGMAWVRQAPGKGLEWVSFISNLAYSVYYADTETGRFTISRDNAKNSLYLQMNSLRAEDTAVYYCARSGLPYAMDYWGQGTTVTVSS VL: DIQMTQSPSSLSASVGDRVTITCRASQDISNYLNWYQQKPGKTVKLLIYYISRLHSGVPSRFSGSGSGTDFTLTISSLQPEDVATYFCQQGRMLPWTFGGGTKVEIKR |
| 68.1 | 0.00196 | 28800 | huD1D5-V8 (antibody, human IgG4 S228P, kappa, V domains shown, humanized IgG4/kappa; tested as 293F cell supernatant on Octet; also called hu CTLA4 D1D5-V8) VH: EVQLVESGGGLVKPGGSLRLSCAASGFTFSDYGMAWVRQAPGKGLEWVSFISNLAYSVYYADTETGRFTISRDNAKNSLYLQMNSLRAEDTAVYYCARSGLPYAMDYWGQGTTVTVSS VL: DIQMTQSPSSLSASVGDRVTITCRASQDISNYLNWYQQKPGKVPKLLIYYISRLHSGVPSRFSGSGSGTDFTLTISSLQPEDVATYFCQQGRMLPWTFGGGTKVEIKR |
| 25.8 | 0.00157 | 60900 | huD1D5-V6 (antibody, human IgG4 S228P, kappa, V domains shown, humanized IgG4/kappa; tested as 293F cell supernatant on Octet; also called hu CTLA4 D1D5-V6) VH: EVQLVESGGGLVKPGGSLRLSCAASGFTFSDYGMAWVRQAPGKGLEWVAFISNLAYSVYYADTETGRFTISRDNAKNSLYLQMNSLRAEDTAVYYCARSGLPYAMDYWGQGTTVTVSS VL: DIQMTQSPSSLSASVGDRVTITCRASQDISNYLNWYQQKPGKVPKLLIYYISRLHSGVPSRFSGSGSGTDFTLTISSLQPEDVATYFCQQGRMLPWTFGGGTKVEIKR |
| < 0.001 | < 1e-07 | 115000 | huD1D5-V3 (antibody, human IgG4 S228P, kappa, V domains shown, humanized IgG4/kappa; tested as 293F cell supernatant on Octet; also called hu CTLA4 D1D5-V3) VH: EVQLVESGGGLVKPGGSLRLSCAASGFTFSDYGMAWVRQAPGKGLEWVAFISNLAYSVYYADTETGRFTISRDDAKNSLYLQMNSLRAEDTAVYYCARSGLPYAMDYWGQGTTVTVSS VL: DIQMTQSPSSLSASVGDRVTITCRASQDISNYLNWYQQKPGKTVKLLIYYISRLHSGVPSRFSGSGSGTDFTLTISSLQPEDVATYFCQQGRMLPWTFGGGTKVEIKR |
